From patent US20250043302A1, “MUTATED HYDROXYPHENYLPYRUVATE DIOXYGENASE POLYPEPTIDE, AND CODING GENE AND USE THEREOF” (BEIJING DABEINONG BIOTECHNOLOGY CO., LTD., priority 2021, published 2025)

Legend:
[1] = tested on: Arabidopsis thaliana T1 plants; assay: Isoxaflutole tolerance of transgenic Arabidopsis thaliana T1 plants (spray, bleached leaf area grade, damage score); type: in vivo; conditions: for Grade 0 (classification and statistics of the grade of pesticide damage; number of plants) / Grade 1 (classification and statistics of the grade of pesticide damage; number of plants) / Grade 2 (classification and statistics of the grade of pesticide damage; number of plants) / Grade 3 (classification and statistics of the grade of pesticide damage; number of plants): 16 plants; for Classification and statistics of the grade of pesticide damage: Grade 0 / Classification and statistics of the grade of pesticide damage: Grade 1 / Classification and statistics of the grade of pesticide damage: Grade 2 / Classification and statistics of the grade of pesticide damage: Grade 3: number of plants;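 for Scores: Weighted damage index from 0 to 100 where higher means more damage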
How it was run: (§1)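 T1 transformants selected by glufosinate; 18-day-old plants, with empty-vector and wild-type controls, sprayed with topramezone (25–200 g ai/ha), isoxaflutole (35–280 g ai/ha) or mesotrione (52.5–420 g ai/ha), water as 0×. Bleached leaf area fraction scored at 7 DAT as grades 0–3.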

[2] = tested on: Arabidopsis thaliana T1 plants; assay: Topramezone tolerance of transgenic Arabidopsis thaliana T1 plants (spray, bleached leaf area grade, damage score); type: in vivo; conditions: for Classification and statistics of the grade of pesticide damage Grade 0: number of plants at grade 0; for Classification and statistics of the grade of pesticide damage Grade 1: number of plants at grade 1; for Classification and statistics of the grade of pesticide damage Grade 2: number of plants at grade 2; for Classification and statistics of the grade of pesticide damage Grade 3: number of plants at grade 3; for Classification and statistics of the grade of pesticide damage: Grade 0 / Classification and statistics of the grade of pesticide damage: Grade 1 / Classification and statistics of the grade of pesticide damage: Grade 2 / Classification and statistics of the grade of pesticide damage: Grade 3: number of plants; for Grade 0 (classification and statistics of the grade of pesticide damage; number of plants) / Grade 1 (classification and statistics of the grade of pesticide damage; number of plants) / Grade 2 (classification and statistics of the grade of pesticide damage; number of plants) / Grade 3 (classification and statistics of the grade of pesticide damage; number of plants): 16 plants
How it was run: as §1

[3] = isoxaflutole 140 g ai/ha (2x field concentration), Arabidopsis thaliana T1 plants
[4] = isoxaflutole 140 g ai/ha (2×), 7 DAT, Table 2
[5] = isoxaflutole 140 g ai/ha, number of plants in grade
[6] = isoxaflutole 280 g ai/ha (4x field concentration), Arabidopsis thaliana T1 plants
[7] = isoxaflutole 280 g ai/ha (4×), 7 DAT, Table 2
[8] = isoxaflutole 280 g ai/ha, number of plants in grade
[9] = Table 10, topramezone 100 g ai/ha (4×)
[10] = Table 10, topramezone 200 g ai/ha (8×)
[11] = topramezone 100 g ai/ha (4×), 7 DAT, Table 1
[12] = topramezone 200 g ai/ha (8×), 7 DAT, Table 1
[13] = topramezone 100 g ai/ha (4x field concentration), Arabidopsis thaliana T1 plants
[14] = topramezone 200 g ai/ha (8x field concentration), Arabidopsis thaliana T1 plants

B1: AsHPPD-02: nucleotide sequence encoding Avena sativa wild-type HPPD; vector DBN11727 (nucleic acid)
DNA: ATGCCACCTACTCCAGCTACAGCTACTGGTGCTGCTGCTGCTGCCGTTACTCCTGAGCACGCTGCCAGGTCATTCCCCAGGGTGGTTCGCGTGAACCCCAGATCTGATAGGTTCCCAGTTCTGAGCTTCCACCATGTTGAGCTGTGGTGCGCTGATGCTGCTTCTGCTGCTGGCAGGTTCTCTTTCGCTCTTGGTGCTCCACTCGCTGCTAGATCTGATCTGTCTACAGGAAATAGCGCTCATGCCTCACTCCTGCTTCGCTCAGGTGCTTTGGCCTTCCTCTTCACCGCTCCATATGCTCCCCCACCTCAGGAGGCTGCTACTGCTGCTGCTACAGCCTCCATTCCAAGCTTCTCAGCTGATGCCGCTAGAACCTTCGCTGCTGCTCATGGACTTGCCGTGAGGTCTGTTGGTGTTCGCGTGGCTGATGCTGCTGAGGCTTTCAGAGTTTCCGTTGCCGGCGGAGCTAGGCCAGCTTTCGCTCCTGCTGATTTGGGACATGGTTTCGGCCTGGCTGAGGTTGAGCTTTACGGTGACGTGGTTCTCCGCTTCGTGTCTTACCCAGATGAGACTGACCTGCCTTTCCTTCCCGGCTTCGAGAGAGTTTCCTCTCCTGGTGCCGTGGATTACGGCCTGACAAGGTTCGACCACGTGGTTGGAAACGTTCCCGAGATGGCTCCAGTGATCGATTACATGAAGGGCTTCCTTGGATTCCATGAGTTCGCCGAGTTCACTGCTGAGGACGTGGGAACCACTGAGTCCGGTTTGAACTCTGTGGTTCTCGCCAACAATTCTGAGGCTGTTTTGCTCCCTCTGAATGAGCCTGTGCATGGAACCAAGAGGAGAAGCCAGATTCAAACTTACCTGGAGTACCACGGTGGCCCTGGAGTTCAGCATATCGCCCTTGCTTCTAATGATGTGTTGCGCACACTCAGAGAGATGCGCGCCAGAACCCCCATGGGAGGTTTCGAGTTCATGGCCCCACCACAGGCTAAGTACTACGAGGGCGTTAGAAGGATTGCTGGAGACGTGTTGAGCGAGGAGCAGATCAAGGAGTGCCAAGAGCTGGGTGTTCTTGTGGATAGGGATGACCAGGGCGTTCTGCTTCAAATTTTCACTAAGCCAGTGGGCGACCGCCCTACATTCTTCCTTGAGATGATTCAAAGAATCGGCTGCATGGAGAAGGATGAGGTTGGACAGGAGTACCAAAAGGGCGGATGCGGTGGCTTCGGAAAGGGTAACTTCAGCGAGTTGTTCAAGTCAATCGAGGACTACGAGAAGAGCCTCGAGGTGAAGCAGTCAGTGGTTGCCCAAAAGTCCTGA
modifications: AsHPPD-02 Nucleotide Sequence
notes: vector DBN11727
In the case of B1, the Resistance evaluation ([1]; Table 11, isoxaflutole 140 g ai/ha (2×)) is reported as “Non-resistant”, the “Classification and statistics of the grade of pesticide damage Grade 0” value ([1]; Table 11, isoxaflutole 140 g ai/ha (2×), number of plants at grade 0) is reported as 0 and the “Classification and statistics of the grade of pesticide damage Grade 1” value ([1]; Table 11, isoxaflutole 140 g ai/ha (2×), number of plants at grade 1) is reported as 1. For the same molecule, the “Classification and statistics of the grade of pesticide damage Grade 2” value ([1]; Table 11, isoxaflutole 140 g ai/ha (2×), number of plants at grade 2) was 4, the “Classification and statistics of the grade of pesticide damage Grade 3” value ([1]; Table 11, isoxaflutole 140 g ai/ha (2×), number of plants at grade 3) was 11 and the Scores ([1]; Table 11, isoxaflutole 140 g ai/ha (2×), pesticide damage score) was 88. The Resistance evaluation ([1]; Table 11, isoxaflutole 280 g ai/ha (4×)) was “Non-resistant”, the “Classification and statistics of the grade of pesticide damage Grade 0” value ([1]; Table 11, isoxaflutole 280 g ai/ha (4×), number of plants at grade 0) was 0 and the “Classification and statistics of the grade of pesticide damage Grade 1” value ([1]; Table 11, isoxaflutole 280 g ai/ha (4×), number of plants at grade 1) was 0. The “Classification and statistics of the grade of pesticide damage Grade 2” value ([1]; Table 11, isoxaflutole 280 g ai/ha (4×), number of plants at grade 2) was 0, the “Classification and statistics of the grade of pesticide damage Grade 3” value ([1]; Table 11, isoxaflutole 280 g ai/ha (4×), number of plants at grade 3) was 16 and the Scores ([1]; Table 11, isoxaflutole 280 g ai/ha (4×), pesticide damage score) was 100. The “tolerance to isoxaflutole (in words)” value ([1]; in vivo) was “no tolerance”, the Resistance evaluation ([1]; isoxaflutole 140 g ai/ha) was “Non-resistant” and the Scores ([1]; isoxaflutole 140 g ai/ha) was 88. The Resistance evaluation [1, 3] was “Non-resistant”, the Scores [1, 3] was 88 and the “Grade 0 (classification and statistics of the grade of pesticide damage; number of plants)” value [1, 3] was 0. For the same molecule, the “Grade 1 (classification and statistics of the grade of pesticide damage; number of plants)” value [1, 3] was 1, the “Grade 2 (classification and statistics of the grade of pesticide damage; number of plants)” value [1, 3] was 4 and the “Grade 3 (classification and statistics of the grade of pesticide damage; number of plants)” value [1, 3] was 11. For the same molecule, the Resistance evaluation [1, 4] was “non-resistant (non-resistant plants (scores 68-100))”, the “Classification and statistics of the grade of pesticide damage Grade 0” value [1, 5] was 0 and the “Classification and statistics of the grade of pesticide damage Grade 1” value [1, 5] was 1. The “Classification and statistics of the grade of pesticide damage Grade 2” value [1, 5] was 4, the “Classification and statistics of the grade of pesticide damage Grade 3” value [1, 5] was 11 and the Resistance evaluation ([1]; isoxaflutole 280 g ai/ha) was “Non-resistant”. The Scores ([1]; isoxaflutole 280 g ai/ha) was 100, the Resistance evaluation [1, 6] was “Non-resistant” and the Scores [1, 6] was 100. For the same molecule, the “Grade 0 (classification and statistics of the grade of pesticide damage; number of plants)” value [1, 6] was 0, the “Grade 1 (classification and statistics of the grade of pesticide damage; number of plants)” value [1, 6] was 0 and the “Grade 2 (classification and statistics of the grade of pesticide damage; number of plants)” value [1, 6] was 0. For the same molecule, the “Grade 3 (classification and statistics of the grade of pesticide damage; number of plants)” value [1, 6] was 16, the Resistance evaluation [1, 7] was “non-resistant (non-resistant plants (scores 68-100))” and the “Classification and statistics of the grade of pesticide damage Grade 0” value [1, 8] was 0. For the same molecule, the “Classification and statistics of the grade of pesticide damage Grade 1” value [1, 8] was 0, the “Classification and statistics of the grade of pesticide damage Grade 2” value [1, 8] was 0 and the “Classification and statistics of the grade of pesticide damage Grade 3” value [1, 8] was 16. The “Classification and statistics of the grade of pesticide damage: Grade 0” value [1, 4] was 0, the “Classification and statistics of the grade of pesticide damage: Grade 1” value [1, 4] was 1 and the “Classification and statistics of the grade of pesticide damage: Grade 2” value [1, 4] was 4. For the same molecule, the “Classification and statistics of the grade of pesticide damage: Grade 3” value [1, 4] was 11, the “Classification and statistics of the grade of pesticide damage: Grade 0” value [1, 7] was 0 and the “Classification and statistics of the grade of pesticide damage: Grade 1” value [1, 7] was 0. For the same molecule, the “Classification and statistics of the grade of pesticide damage: Grade 2” value [1, 7] was 0, the “Classification and statistics of the grade of pesticide damage: Grade 3” value [1, 7] was 16 and the Scores ([1]; pesticide damage score 0-100, isoxaflutole 140 g ai/ha (2×), 7 DAT, Table 2) was 88. For the same molecule, the Scores ([1]; pesticide damage score 0-100, isoxaflutole 280 g ai/ha (4×), 7 DAT, Table 2) was 100, the Resistance evaluation [2, 9] was “Non-resistant” and the “Classification and statistics of the grade of pesticide damage Grade 0” value [2, 9] was 0. For the same molecule, the “Classification and statistics of the grade of pesticide damage Grade 1” value [2, 9] was 0, the “Classification and statistics of the grade of pesticide damage Grade 2” value [2, 9] was 4 and the “Classification and statistics of the grade of pesticide damage Grade 3” value [2, 9] was 12. For the same molecule, the Scores ([2]; Table 10, topramezone 100 g ai/ha (4×), pesticide damage score) was 92, the Resistance evaluation [2, 10] was “Non-resistant” and the “Classification and statistics of the grade of pesticide damage Grade 0” value [2, 10] was 0. The “Classification and statistics of the grade of pesticide damage Grade 1” value [2, 10] was 0, the “Classification and statistics of the grade of pesticide damage Grade 2” value [2, 10] was 0 and the “Classification and statistics of the grade of pesticide damage Grade 3” value [2, 10] was 16. The Scores ([2]; Table 10, topramezone 200 g ai/ha (8×), pesticide damage score) was 100, the “tolerance to topramezone (in words)” value ([2]; in vivo) was “no tolerance” and the “Classification and statistics of the grade of pesticide damage: Grade 0” value [2, 11] was 0. The “Classification and statistics of the grade of pesticide damage: Grade 1” value [2, 11] was 0, the “Classification and statistics of the grade of pesticide damage: Grade 2” value [2, 11] was 4 and the “Classification and statistics of the grade of pesticide damage: Grade 3” value [2, 11] was 12. The “Classification and statistics of the grade of pesticide damage: Grade 0” value [2, 12] was 0, the “Classification and statistics of the grade of pesticide damage: Grade 1” value [2, 12] was 0 and the “Classification and statistics of the grade of pesticide damage: Grade 2” value [2, 12] was 0. The “Classification and statistics of the grade of pesticide damage: Grade 3” value [2, 12] was 16, the Scores ([2]; pesticide damage score 0-100, topramezone 100 g ai/ha (4×), 7 DAT, Table 1) was 92 and the Scores ([2]; pesticide damage score 0-100, topramezone 200 g ai/ha (8×), 7 DAT, Table 1) was 100. For the same molecule, the Resistance evaluation [2, 13] was “Non-resistant”, the Scores [2, 13] was 92 and the “Grade 0 (classification and statistics of the grade of pesticide damage; number of plants)” value [2, 13] was 0. For the same molecule, the “Grade 1 (classification and statistics of the grade of pesticide damage; number of plants)” value [2, 13] was 0, the “Grade 2 (classification and statistics of the grade of pesticide damage; number of plants)” value [2, 13] was 4 and the “Grade 3 (classification and statistics of the grade of pesticide damage; number of plants)” value [2, 13] was 12. The Resistance evaluation [2, 11] was “non-resistant (non-resistant plants (scores 68-100))”, the Resistance evaluation [2, 14] was “Non-resistant” and the Scores [2, 14] was 100. For the same molecule, the “Grade 0 (classification and statistics of the grade of pesticide damage; number of plants)” value [2, 14] was 0, the “Grade 1 (classification and statistics of the grade of pesticide damage; number of plants)” value [2, 14] was 0 and the “Grade 2 (classification and statistics of the grade of pesticide damage; number of plants)” value [2, 14] was 0. For the same molecule, the “Grade 3 (classification and statistics of the grade of pesticide damage; number of plants)” value [2, 14] was 16 and the Resistance evaluation [2, 12] was “non-resistant (non-resistant plants (scores 68-100))”.
